The data set deals with the molecule itself. In words: cross-linking.

B1: OxyR (PA5344) of Pseudomonas aeruginosa PAO1 with a carboxyl-terminal His-tag (natural protein, UniProt Q9HTL4 1-310, looked up)
chain: MTLTELRYIVTLAQEQHFGRAAERCHVSQPTLSVGVKKLEDELGVLIFERSKSAVRLTPVGEGIVAQAQKVLEQAQGIRELAQAGKNQLAAPLKVGAIYTIGPYLFPHLIPQLHRVAPQMPLYIEENFTHILRDKLRTGELDAIIIALPFQEADVLTKPLFDEPFYVLMPADHPWTAKASIDSELLNDKSLLLLGEGHCFRDQVLEACPTVRKGDENKHTTVESSSLETIRHMVASGLGVSVLPFSAVDSHHYAPGVIEVRPFSAPVPFRTVAIAWRASFPRPRAIEVLADSIRLCSVARPQTQEQPQIA
In the case of B1, the stoichiometry N (usually a count of units in the complex or per binding partner) is 2.

For the origin of these results see publication PMC3378865 (Nucleic Acids Research, 2012).
